Results reported in US20220411501A1 (INTERNATIONAL DRUG DEVELOPMENT BIOTECH, published 2022).

Assays:
[1] = target: T1, CD117 (c-Kit, stem cell factor receptor) on HEL or TF1 human erythroleukemia cells (human, UniProt P10721 26-976); experiment: flow cytometry on HEL cells; 1 µl/2.10^5 cells
T1 construct: whole, on cells
Protocol: (§1) By flow cytometry, the humanized mAb staining was analyzed on HEL CD117 positive cell line. […] No staining was observed on the cell line CEM (CD117 negative, (data not shown).

[2] = target: T1, CD117 (c-Kit, stem cell factor …); experiment: flow cytometry on HEL cells; 10 µl/2.10^5 cells
Protocol: as §1

[3] = target: T1, CD117 (c-Kit, stem cell factor …); experiment: flow cytometry on HEL cells; 100 µl/2.10^5 cells
Protocol: as §1

[4] = target: T1, CD117 (c-Kit, stem cell factor …); experiment: flow cytometry on HEL cells; 0.1 µl/2.10^5 cells
Protocol: as §1

T1 sequence (P10721 26-976): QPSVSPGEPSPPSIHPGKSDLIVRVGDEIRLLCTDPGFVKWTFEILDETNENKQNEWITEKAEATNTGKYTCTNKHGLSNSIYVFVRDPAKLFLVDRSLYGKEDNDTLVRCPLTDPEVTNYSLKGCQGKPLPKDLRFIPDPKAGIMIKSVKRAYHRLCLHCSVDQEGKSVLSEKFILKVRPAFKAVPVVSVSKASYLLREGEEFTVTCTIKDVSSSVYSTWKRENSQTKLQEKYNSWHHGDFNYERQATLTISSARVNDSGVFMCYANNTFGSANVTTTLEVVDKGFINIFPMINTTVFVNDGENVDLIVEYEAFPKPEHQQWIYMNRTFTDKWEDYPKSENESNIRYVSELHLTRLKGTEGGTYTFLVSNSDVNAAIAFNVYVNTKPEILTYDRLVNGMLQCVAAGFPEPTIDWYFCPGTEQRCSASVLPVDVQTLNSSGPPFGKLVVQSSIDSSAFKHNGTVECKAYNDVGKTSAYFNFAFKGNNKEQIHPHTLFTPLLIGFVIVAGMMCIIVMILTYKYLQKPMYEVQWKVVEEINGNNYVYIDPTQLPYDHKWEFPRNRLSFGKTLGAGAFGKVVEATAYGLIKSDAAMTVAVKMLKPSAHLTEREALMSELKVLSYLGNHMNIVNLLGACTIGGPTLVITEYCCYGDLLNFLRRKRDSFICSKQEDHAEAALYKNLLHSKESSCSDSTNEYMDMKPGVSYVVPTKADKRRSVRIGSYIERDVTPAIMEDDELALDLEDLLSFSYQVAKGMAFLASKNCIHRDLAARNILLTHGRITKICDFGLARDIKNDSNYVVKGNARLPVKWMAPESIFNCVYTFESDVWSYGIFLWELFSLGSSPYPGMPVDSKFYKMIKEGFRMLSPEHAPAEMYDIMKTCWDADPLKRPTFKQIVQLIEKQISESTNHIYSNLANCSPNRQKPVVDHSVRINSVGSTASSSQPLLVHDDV

Row | % labelled HEL cells [1] [%] | MFI [1] | % labelled HEL cells [2] [%] | MFI [2] | % labelled HEL cells [3] [%] | MFI [3] | % labelled HEL cells [4] [%] | MFI [4] | Binder
1 | 67 | 228 | 70 | 236 | 73 | 241 | 59 | 210 | humanized antibody 36-5 Hz121 (antibody, human IgG1, V domains shown, The variable regions were cloned into vector p3U containing the human IgG1 constant region; also called H-36.5Hz30 + L-36.5Hz31) VH: QVQLVQSGAEVKKPGASVKVSCKASGYTFTSYWMNWVRQAPGQGLEWMGRIDPSDSEIHYNQKFKGRVTMTVDTSTSTAYMELSSLRSEDTAVYYCARDYGSDYYAMDYWGQGTLVTVSS VL: QIVLTQSPAFQSVTPGEKVTITCSASQSVSYMHWYQQKSGTSPKLLIYSTSNLTSGVPSRFSGSGSGTDYTLTISSLEAEDAATYYCHQWSSYPFGGGTKVEIK
2 | 66 | 228 | 70 | 136 | 74 | 242 | 64 | 225 | humanized antibody 36-5 Hz114 (antibody, human IgG1, V domains shown, The variable regions were cloned into expression vector p3U containing the human IgG1 constant region; also called H-36.5Hz27 + L-36.5Hz31) VH: QVQLVQSGAEVKKPGASVKVSCKASGYTFTSYWMNWVRQAPGQGLEWMGRIDPSDSEIHYNQKFKDKATLTVDKSTSTAYMELSSLRSEDTAVYYCARDYGSDYYAMDYWGQGTLVTVSS VL: QIVLTQSPAFQSVTPGEKVTITCSASQSVSYMHWYQQKSGTSPKLLIYSTSNLTSGVPSRFSGSGSGTDYTLTISSLEAEDAATYYCHQWSSYPFGGGTKVEIK
3 | 72 | 240 | 77 | 250 | 94 | 291 | 61 | 214 | humanized antibody 36-5 Hz128 (antibody, human IgG1, V domains shown, The variable regions were cloned into vector p3U containing the human IgG1 constant region; also called H-36.5Hz31 + L-36.5Hz31) VH: QVQLVQSGAEVKKPGASVKVSCKASGYTFTSYWMNWVRQAPGQGLEWIGRIDPSDSEIHYNQKFKGRVTMTVDTSTSTAYMELSSLRSEDTAVYYCARDYGSDYYAMDYWGQGTLVTVSS VL: QIVLTQSPAFQSVTPGEKVTITCSASQSVSYMHWYQQKSGTSPKLLIYSTSNLTSGVPSRFSGSGSGTDYTLTISSLEAEDAATYYCHQWSSYPFGGGTKVEIK
4 | 80 | 259 | 81 | 262 | 80 | 251 | 43 | 259 | ch36-05 chimeric monoclonal antibody (antibody, human IgG1, kappa, V domains shown, Murine VH + human IgG1 Fc; murine VL + human Kappa; also called chR036-05; chR036.05) VH: QVQLQQSGAELVKPGAPVKLSCKASGYTFTRYWMNWVKQRPGRGLEWIGRIDPSDSEIHYNQNFKDKATLTVDKSSSTAYIQLSSLTSEDSAVYYCARDYGSDYYAMDYWGQGTSVTVSS VL: QIVLTQSPAIMSASLGEEITLTCSASSSVSYMHWYQQKSGTSPKLLIYSTSNLTSGVPSRFSGSGSGTFYSLTISSVEAEDAADYYCHQWSSYPFGGGTKLEIKR
